Results: patent publication US20050164323A1 (Pfizer, published 2005)

Biological target: PKC-θ kinase domain (PKC-θ KD; amino acid residues 362 to 706), C-terminal hexa-histidine tag, expressed in … (Homo sapiens (Human), UniProt Q04759 362-706, autophosphorylated at 5 or 6 residues in E. coli; sites identified: Ser695, Ser685 and Thr538 or Thr536 (numbering of full-length PKC-θ))
Assay: cell-based or functional assay

Chain of PKC-θ kinase domain (PKC-θ KD; amino acid residues 362 to 706), C-terminal hexa-histidine tag, expressed in … (Q04759 other isoform, or with tags, fused parts or gaps limits assumed): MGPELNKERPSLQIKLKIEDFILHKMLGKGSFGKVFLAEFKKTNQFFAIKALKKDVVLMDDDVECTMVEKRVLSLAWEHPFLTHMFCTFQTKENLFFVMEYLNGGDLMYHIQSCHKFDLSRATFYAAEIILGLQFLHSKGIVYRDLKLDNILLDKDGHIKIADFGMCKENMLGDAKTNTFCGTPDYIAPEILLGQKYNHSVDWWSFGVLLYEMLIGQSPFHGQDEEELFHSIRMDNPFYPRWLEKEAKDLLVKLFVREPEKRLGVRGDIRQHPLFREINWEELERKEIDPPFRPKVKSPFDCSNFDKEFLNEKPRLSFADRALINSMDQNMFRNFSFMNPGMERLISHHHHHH

Row | Binder | appKm (steady-state kinase kinetics, saturating ATP, 100 mM NaCl) [µM]
1 | RTPKLARQASIELPSM [Peptide 4 (RTPKLARQASIELPSM), substrate, lymphocyte-specific protein 1] | 240
2 | RFARKGSLRQKNV [Peptide 2 (RFARKGSLRQKNV), substrate, pseudo-substrate PKC alpha] | 4.3

Now from value to binder:

Row | appKm (steady-state kinase kinetics, saturating ATP, 100 mM NaCl) [µM] | Binder
3 | 6.5 | FARKGSLRQ [Peptide 1 (FARKGSLRQ), substrate, pseudo-substrate PKC alpha]
4 | 420 | LKRSLSEM [Peptide 3 (LKRSLSEM), substrate, Serum Response Factor]
